Measured values reported in patent US9926375B2, “Anti-endoglin antibodies and uses thereof” (Tracon Pharmaceuticals, Inc., priority 2014, dated 2018).
Entries after “also recorded” stand apart in the source; their conditions may differ.

Experiments:
NASH mice = experiment: Murine model of non-alcoholic steatohepatitis (NASH; STZ and high fat diet); format: in vivo, mouse
Outline: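 NASH induced in mice by single postnatal subcutaneous STZ plus high-fat diet from 4 weeks of age; groups of 10 dosed from day 63 with antibodies i.v. at 10 mg/kg twice weekly or telmisartan orally 10 mg/kg daily to day 84. At 12 weeks, H&E liver sections scored for NAFLD Activity Score (0–8); Bonferroni test, P<0.05.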

mouse endoglin [1] = target: T1, mouse endoglin (Mus musculus, UniProt Q63961); experiment: ELISA binding of M1043 antibody to mouse endoglin; settings: 10 μg/ml to 0.014 μg/ml; plate coated with mouse endoglin 1 μg/ml
T1 construct: purchased R&D Systems 1320-EN-025
T1 sequence (Q63961 27-581 limits assumed): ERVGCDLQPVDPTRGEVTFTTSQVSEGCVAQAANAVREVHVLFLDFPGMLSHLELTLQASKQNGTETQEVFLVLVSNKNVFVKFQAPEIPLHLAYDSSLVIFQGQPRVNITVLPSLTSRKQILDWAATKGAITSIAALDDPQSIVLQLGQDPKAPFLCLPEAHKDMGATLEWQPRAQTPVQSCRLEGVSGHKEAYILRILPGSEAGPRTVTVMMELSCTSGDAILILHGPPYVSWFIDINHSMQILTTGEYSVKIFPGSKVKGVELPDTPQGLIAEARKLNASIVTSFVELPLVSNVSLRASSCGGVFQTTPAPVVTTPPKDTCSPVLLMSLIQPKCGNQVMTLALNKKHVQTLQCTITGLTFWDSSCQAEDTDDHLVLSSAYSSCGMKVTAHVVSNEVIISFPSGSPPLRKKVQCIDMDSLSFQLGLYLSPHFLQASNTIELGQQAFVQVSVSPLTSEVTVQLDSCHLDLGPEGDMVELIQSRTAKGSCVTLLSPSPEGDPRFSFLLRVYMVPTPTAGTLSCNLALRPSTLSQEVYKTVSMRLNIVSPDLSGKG
Description: An ELISA was established to determine the binding of M1043 antibody to mouse endoglin as follows: Nunc Immuno MaxiSorp 96 well flat bottom plates (Fisher, Cat. No. DIS-971-030J) were coated with mouse endoglin (R&D Systems, Cat. No. 1320-EN-025) at 1 μg/ml in PBS overnight at 4° C. The following day the plate was washed three times with PBST before blocking with PBST/3% Marvel at room temperature for 1 hour. After blocking, the plate was washed three times with PBST, and varying concentrations (10 μg/ml to 0.014 μg/ml in three-fold serial dilutions) of either M1043 or an irrelevant rat IgG1 (Affymetrix, Cat. No. 14-4301) in PBST/3% Marvel were added to the plate and incubated for 1 hour at room temperature. Binding of the antibodies was detected via anti-rat IgG peroxidase (Sigma, Cat. No. A9037) and TMB single solution substrate (Invitrogen, Cat. No. 00-2023). The reaction was stopped by adding 3 M HCl and OD450 nm values were measured on a Dynex MRX TCII plate reader.

mouse endoglin [2] = target: T2, mouse endoglin (Mus musculus, UniProt Q63961); experiment: Inhibition of mouse BMP binding to mouse endoglin (statement, no method); settings: statement in description
T2 sequence (Q63961 27-653): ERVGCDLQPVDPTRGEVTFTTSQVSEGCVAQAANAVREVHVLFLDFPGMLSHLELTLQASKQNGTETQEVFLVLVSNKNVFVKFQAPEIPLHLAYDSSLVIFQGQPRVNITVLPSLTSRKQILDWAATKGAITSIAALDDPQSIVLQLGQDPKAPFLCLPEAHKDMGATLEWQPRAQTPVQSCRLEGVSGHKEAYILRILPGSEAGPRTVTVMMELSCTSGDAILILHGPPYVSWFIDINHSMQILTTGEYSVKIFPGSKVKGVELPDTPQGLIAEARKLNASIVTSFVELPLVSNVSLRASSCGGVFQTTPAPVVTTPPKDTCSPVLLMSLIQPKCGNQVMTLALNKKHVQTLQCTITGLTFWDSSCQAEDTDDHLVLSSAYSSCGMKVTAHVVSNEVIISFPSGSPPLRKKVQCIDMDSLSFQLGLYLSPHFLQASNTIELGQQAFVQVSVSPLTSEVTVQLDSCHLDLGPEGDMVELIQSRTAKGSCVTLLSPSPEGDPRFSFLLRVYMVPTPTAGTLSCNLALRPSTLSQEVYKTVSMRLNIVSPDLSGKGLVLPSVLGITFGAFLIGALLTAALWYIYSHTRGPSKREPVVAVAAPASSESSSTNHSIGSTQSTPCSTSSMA

[3] = liver gene expression, mean ± SD, Normal-Vehicle 1.0

B1: M1043: rat IgG1 antibody that binds mouse endoglin and competitively inhibits mouse BMP binding; VH SEQ ID NO: 124, VL SEQ ID NO: 125 (antibody, V domains shown)
VH: QVQLQQSGAELVKPGSSVKISCKASGYTFTSYDMHWIKQQPGNGLEWIGWIYPGNGNTKYNQKFNGKATLTADKSSSTAYMQLSSLTSEDSAVYFCARGKFGVGDYWGQGVMVTVSS
VL: DTVLTQSPALAVSPGERVSISCRASEGVNSYMHWYQQKPGQQPKLLIYIASNLASGVPARFSGSGSGTDFTLTIDPVEADDTATYFCQQSWNDPYTFGAGTKLELKR
NASH mice; Bonferroni, P<0.05
  Liver triglyceride contents compared with the NASH-Vehicle group: significant decreases
  Mean liver weight compared with the NASH-Vehicle group: tended to decrease
  Mean liver-to-body weight ratio compared with the NASH-Vehicle group: significant decreases
  NAS compared with the NASH-Vehicle group: significant decreases in NAS; also recorded: significant reductions of NAS
  Serum alanine aminotransferase (ALT) levels compared with the NASH-Vehicle group: tended to decrease
  Serum aspartate aminotransferase (AST) levels compared with the NASH-Vehicle group: tended to decrease
NASH mice; F4/80 immunostaining, macrophage marker
  F4/80-positive signals and cells in liver compared with the NASH-Vehicle group: Lower F4/80-positive signals and positive cells
NASH mice; [3]
  Alpha-SMA mRNA expression: 1.7 ± 0.4
  MCP-1 mRNA expression: 3.2 ± 2.4
  TIMP-1 mRNA expression: 7.6 ± 3.3
  TNF-α mRNA expression: 4.4 ± 1.9
NASH mice; mean ± SD
  Liver triglyceride: 22.4 ± 5.4 mg/g liver
  Serum ALP: 358 ± 129 U/L
  Serum ALT: 24 ± 4 U/L
  Serum AST: 76 ± 24 U/L
NASH mice; mean ± SD, liver sections
  Sirius red-positive area: 0.86 ± 0.30%
NASH mice; mean ± SD, range 0-8, 10 mg/kg
  NAS (NAFLD Activity score): 4.1 ± 1.0
NASH mice; score 0 = No Foci
  Lobular inflammation score 0, number of mice: 1
NASH mice; score 0 = None
  Hepatocyte ballooning score 0, number of mice: 2
NASH mice; score 1 = 5-33%
  Steatosis score 1, number of mice: 6
NASH mice; score 1 = <2 foci/200x
  Lobular inflammation score 1, number of mice: 1
NASH mice; score 1 = Few balloon cells
  Hepatocyte ballooning score 1, number of mice: 2
NASH mice; score 2 = 2-4 foci/200x
  Lobular inflammation score 2, number of mice: 6
NASH mice; score 2 = >33-66%
  Steatosis score 2, number of mice: 2
NASH mice; score 2 = Many cells/prominent ballooning
  Hepatocyte ballooning score 2, number of mice: 4
NASH mice; summary of lobular inflammation score and F4/80 immunostaining
  Inflammatory cell infiltration in the liver: reductions in inflammatory cell infiltration in the liver
Mouse endoglin [1]
  Binding to mouse endoglin (ELISA): binds specifically to mouse endoglin
Mouse endoglin [2]
  Effect on mouse BMP binding to mouse endoglin: competitively inhibit mouse BMP binding
